Laboratory results published in the Immune Epitope Database (IEDB).
One block for each sequence: values may come before it.

What was measured:
HLA-A*02:01 = assay: IEDB peptide-MHC binding, purified MHC/direct/fluorescence; filed as Kd, often an IC50 or EC50 that approximates it; ≥ and ≤ were set here for values at or beyond the usual limits of such assays
HLA-A*11:01 = assay: as above
HLA-B*57:01 [1] = assay: as above; conditions: source organism: Orthohantavirus seoulense
HLA-A*68:02 = assay: as above
HLA-B*58:01 = assay: as above; conditions: source organism: Orthohantavirus seoulense
HLA-B*27:05 = assay: as above; conditions: source organism: Orthohantavirus seoulense
HLA-A*31:01 [2] = assay: as above; conditions: source organism: Orthohantavirus seoulense
HLA-B*08:01 = assay: as above; conditions: source organism: Orthohantavirus seoulense
HLA-B*46:01 [3] = assay: as above; conditions: source organism: Orthohantavirus seoulense
HLA-B*07:02 = assay: as above; conditions: source organism: Orthohantavirus seoulense
HLA-A*03:01 [4] = assay: as above
HLA-A*01:01 = assay: as above
HLA-A*69:01 [5] = assay: as above
HLA-B*15:01 = assay: as above
HLA-A*02:12 = assay: as above; conditions: source organism: Limestone Canyon virus
HLA-B*48:01 = assay: as above; conditions: source organism: Orthohantavirus seoulense
HLA-B*40:01 = assay: as above; conditions: source organism: Orthohantavirus seoulense
HLA-B*18:01 = assay: as above; conditions: source organism: Orthohantavirus seoulense
HLA-B*44:02 = assay: as above; conditions: source organism: Orthohantavirus seoulense
HLA-A*26:01 = assay: IEDB peptide-MHC binding, purified MHC/competitive/fluorescence; filed as Kd, often an IC50 or EC50 that approximates it; ≥ and ≤ were set here for values at or beyond the usual limits of such assays
HLA-B*27:03 = assay: as above
HLA-B*39:01 = assay: as above
HLA-B*51:01 = assay: as above
HLA-B*15:17 = assay: as above
HLA-B*57:01 [6] = assay: as above; conditions: source organism: Orthohantavirus tulaense
HLA-B*46:01 [7] = assay: as above; conditions: source organism: Orthohantavirus tulaense
HLA-A*03:01 [8] = assay: as above; conditions: source organism: Orthohantavirus tulaense
HLA-A*69:01 [9] = assay: as above; conditions: source organism: Orthohantavirus tulaense
HLA-A*31:01 [10] = assay: as above
HLA-A*29:02 = assay: IEDB peptide-MHC binding, purified MHC/direct/fluorescence; filed as Kd, often an IC50 or EC50 that approximates it; ≥ and ≤ were set here for values at or beyond the usual limits of such assays
HLA-A*30:01 = assay: IEDB peptide-MHC binding, purified MHC/competitive/fluorescence; filed as Kd, often an IC50 or EC50 that approximates it; ≥ and ≤ were set here for values at or beyond the usual limits of such assays; conditions: source organism: Nostoc punctiforme PCC 73102
HLA-A*24:03 = assay: as above; conditions: source organism: Nostoc punctiforme PCC 73102
[11] = source organism: Orthohantavirus seoulense
[12] = source organism: Orthohantavirus tulaense
[13] = source organism: West Nile virus
[14] = source organism: Influenza A virus (A/chicken/Viet Nam/DT-015/2004(H5N1))

Sequence: KPKHLYVSM
Kd (HLA-A*02:01; [11]): ≥ 20 µM | Kd (HLA-A*11:01; [11]): ≥ 20 µM | Kd (HLA-B*57:01 [1]): ≥ 20 µM | Kd (HLA-A*68:02; source organism: Limestone Canyon virus): ≥ 20 µM | Kd (HLA-B*58:01): ≥ 20 µM | Kd (HLA-B*27:05): ≥ 20 µM | Kd (HLA-A*31:01 [2]): ≥ 20 µM | Kd (HLA-B*08:01): 0.254 µM | Kd (HLA-B*46:01 [3]): ≥ 20 µM | Kd (HLA-B*07:02): 0.0844 µM | Kd (HLA-A*03:01 [4]; [11]): ≥ 20 µM | Kd (HLA-A*01:01; [11]): ≥ 20 µM | Kd (HLA-A*69:01 [5]; [11]): ≥ 20 µM | Kd (HLA-B*15:01; [11]): ≥ 20 µM | Kd (HLA-A*02:12): ≥ 20 µM | Kd (HLA-B*48:01): ≥ 20 µM | Kd (HLA-B*40:01): ≥ 20 µM | Kd (HLA-B*18:01): ≥ 20 µM | Kd (HLA-B*44:02): ≥ 20 µM | Kd (HLA-A*26:01; [11]): ≥ 20 µM | Kd (HLA-B*27:03; [11]): ≥ 20 µM | Kd (HLA-B*39:01; [11]): ≥ 20 µM | Kd (HLA-B*51:01; [11]): ≥ 20 µM | Kd (HLA-B*15:17; [11]): ≥ 20 µM

Sequence: FMSRKLHRY
Kd (HLA-A*68:02; [12]): ≥ 20 µM | Kd (HLA-A*01:01; source organism: Orthohantavirus negraense): 0.0095 µM | Kd (HLA-A*26:01; [12]): ≥ 20 µM | Kd (HLA-B*27:03; [12]): ≥ 20 µM | Kd (HLA-B*39:01; [12]): ≥ 20 µM | Kd (HLA-B*57:01 [6]): ≥ 20 µM | Kd (HLA-B*46:01 [7]): ≥ 20 µM | Kd (HLA-A*03:01 [8]): 8 µM | Kd (HLA-A*69:01 [9]): ≥ 20 µM | Kd (HLA-B*51:01; [12]): ≥ 20 µM | Kd (HLA-B*15:17; [12]): ≥ 20 µM

Sequence: VLWDTPSPK
Kd (HLA-A*11:01; [13]): 0.0045 µM | Kd (HLA-A*31:01 [10]; [13]): 0.0339 µM

Sequence: GIPLYDAIK
Kd (HLA-A*11:01; [14]): 7.78 µM | Kd (HLA-A*03:01 [4]; [14]): ≥ 20 µM | Kd (HLA-A*31:01 [10]; source organism: Influenza A virus (A/X-31(H3N2))): ≥ 20 µM

Sequence: ETFNTPAMY
Kd (HLA-A*02:01; source organism: Homo sapiens): ≥ 36.2 µM | Kd (HLA-A*29:02; source organism: Entamoeba histolytica HM-1:IMSS): 0.01 µM | Kd (HLA-A*11:01; source organism: Homo sapiens): ≥ 38.9 µM | Kd (HLA-A*03:01 [4]; source organism: Homo sapiens): 10.5 µM | Kd (HLA-A*01:01; source organism: Homo sapiens): 1.27 µM | Kd (HLA-A*69:01 [5]; source organism: Homo sapiens): 0.0596 µM | Kd (HLA-B*15:01; source organism: Homo sapiens): 0.554 µM

Sequence: KVIDIDLER
Kd (HLA-A*11:01; source organism: Mycobacterium tuberculosis): 0.0139 µM | Kd (HLA-A*31:01 [10]; source organism: Mycobacterium tuberculosis C): 0.0192 µM

Sequence: ESSINISGY
Kd (HLA-A*29:02; source organism: Mammarenavirus machupoense): 0.23 µM | Kd (HLA-A*01:01; source organism: Mammarenavirus juninense): 0.346 µM

Kd (HLA-A*30:01): ≥ 20 µM | Kd (HLA-A*24:03): 0.0039 µM
Sequence: WFSSGLWPF
